The text below walks through data of article PMC2850574 (Biochemistry, 2010).

Ends that are not written are not given here.

In assay [1] the target is IAEDANS-labeled SecAΔ11-Cys-190 (E. coli) (UniProt P10408).
A further assay deals with SecA-Cys-256 (Escherichia coli, UniProt P10408, C885S/C887S/C896S/C98S/T256C). Briefly: Signal peptide binding to SecA-Cys-256 by fluorescence anisotropy. (In general: Fluorescence polarisation rises when a labelled molecule tumbles more slowly, as on binding a larger partner.)
The target in a further assay is SecAΔ11-Cys-190 (Escherichia coli, UniProt P10408, C885S/C887S/C896S/C98S/N190C). Briefly: Binding of SP22 to monomeric SecAΔ11-Cys-190 by FRET titration.
A further assay relates to SecA-Cys-190. Briefly: Specificity control: scrambled SP22 binding/FRET. Set-up: species or system Escherichia coli. The settings on record: 7 μM IAEDANS-labeled SecA-Cys-190, 18 μM IANBD-labeled scrambled SP22; data not shown.
The target in assay [2] is LamB signal peptide signal peptide (Escherichia coli) (UniProt P02943). The settings on record: cited from earlier work.
Assay [3] concerns the target IANBD-labeled alkaline phosphatase signal peptide SP22 (E. coli). Briefly: fluorescence polarisation.
In assay [4] the target is T1, wild-type SecA (Escherichia coli SecA ATPase) (E. coli, UniProt P10408 9-836). Briefly: fluorescence polarisation.
For assay [5], the target named is T1, wild-type SecA (Escherichia coli SecA …). Description: fluorescence polarisation. This is another data set of the same source.

What is called Kd is the constant that tells how readily two partners part at equilibrium. “IAEDANS-labeled SecAΔ11-Cys-190 (from UniProt P10408 9-836) (natural protein)” had a Kd in assay [1] of 0.23 µM.
As for MKQSTIALALLPLLFTPVTKAC-NH2 [SP22], the Kd was 1.1 ± 0.2 µM on SecA-Cys-256 and 3.06 ± 1.13 µM at SecAΔ11-Cys-190.
On to “PLMDTEITLKFLSPLQALKTVC-NH2 [scrambled SP22]”, for which the “high-affinity binding and FRET” value in the assay on SecA-Cys-190 is “neither high-affinity binding nor FRET was detected”.
For SecA (from UniProt P10408), in assay [2], the equilibrium dissociation constant (Kd) is 100 µM.
In assay [3], “SecA-Cys-256 (unlabeled) (from UniProt P10408 9-836) (natural protein)” came in with a Kd of 1.1 µM.

B1: IANBD-labeled alkaline phosphatase signal peptide SP22 (peptide)
chain: MKQSTIALALLPLLFTPVTKAC(IANBD)-NH2
For the molecule B1, the Kd in assay [4] was 1.4 ± 0.2 µM. The “stoichiometry N” value in assay [5] was 1 mole ratio of signal peptide to SecA.
